Some targets named below: HLA-A*11:01; HLA-A*31:01; HLA-A*03:01; HLA-A*68:01; HLA-A*33:01.
Holding throughout (experiment): IEDB peptide-MHC binding, purified MHC/competitive/radioactivity; filed as Kd, often an IC50 or EC50 that approximates it; ≥ and ≤ were set here for values at or beyond the usual limits of such assays
[1] abbreviates: source organism: Vaccinia virus WR.
The mark [2] stands for this setting: source organism: SARS coronavirus Tor2.
Setting [3] is: source organism: Mammarenavirus guanaritoense.

With TSCSKNEAEK, the Kd (commonly the constant that tells how readily two partners part at equilibrium) with HLA-A*11:01 (setting [1]) was 165 nM; with HLA-A*31:01 (setting [1]), 5740 nM; in the assay with HLA-A*03:01 (setting [1]) it was 3800 nM; in the assay with HLA-A*68:01 (setting [1]) it was 385 nM; with HLA-A*33:01 (setting [1]), no less than 70000 nM.
With KMLTFDVFR, the Kd with HLA-A*11:01 (setting [1]) was determined as 2.96 nM; in the assay with HLA-A*31:01 (setting [1]), 3.97 nM; with HLA-A*03:01 (setting [1]) it was 82.9 nM; with HLA-A*68:01 (setting [1]) it was 77.2 nM; in the assay with HLA-A*33:01 (setting [1]), 365 nM.
Regarding KTNDINVRR, the Kd was found to be 30.1 nM with HLA-A*11:01 (setting [1]); 2.24 nM with HLA-A*31:01 (setting [1]); 112 nM in the assay with HLA-A*03:01 (setting [1]); 12.1 nM in the assay with HLA-A*68:01 (setting [1]); 16700 nM with HLA-A*33:01 (setting [1]).
Consider FSGKSTELIR, for which the Kd with HLA-A*11:01 (setting [1]) was 17100 nM; in the assay with HLA-A*31:01 (setting [1]) it was 1920 nM; with HLA-A*03:01 (setting [1]) it was no less than 38100 nM; with HLA-A*68:01 (setting [1]) it was 881 nM; with HLA-A*33:01 (setting [1]) it was 1790 nM.
As for LLTDTIESAK, the Kd with HLA-A*11:01 (setting [1]) came out at 84.7 nM; with HLA-A*31:01 (setting [1]) it was 10100 nM; with HLA-A*03:01 (setting [1]), 190 nM; in the assay with HLA-A*68:01 (setting [1]) it was 667 nM; with HLA-A*33:01 (setting [1]), 2340 nM.
With SLYMAISPK, the Kd is 21.9 nM with HLA-A*11:01 (setting [2]); 1010 nM with HLA-A*31:01 (setting [2]); 13.6 nM in the assay with HLA-A*03:01 (setting [2]); 2190 nM with HLA-A*68:01 (setting [2]); no less than 49500 nM with HLA-A*33:01 (setting [2]).
As to QMAGVEVRY, the Kd in the assay with HLA-A*11:01 (setting [1]) was 2270 nM; with HLA-A*31:01 (setting [1]) it was no less than 31200 nM; with HLA-A*03:01 (setting [1]), 49.6 nM; with HLA-A*68:01 (setting [1]), 7430 nM; with HLA-A*33:01 (setting [1]), no less than 20200 nM.
For LTDTIESAK, in that order: 125 nM, 8.11 nM, 1070 nM, 25.7 nM and 3.04 nM.
On to KLLQTLVLK, for which the Kd with HLA-A*11:01 (setting [2]) was 1070 nM; in the assay with HLA-A*31:01 (setting [2]), 2480 nM; with HLA-A*03:01 (setting [2]) it was 863 nM; with HLA-A*68:01 (setting [2]), no less than 39400 nM; in the assay with HLA-A*33:01 (setting [2]) it was no less than 44900 nM.
For ASCDAIMTR, the Kd with HLA-A*11:01 (setting [2]) was 79.4 nM; with HLA-A*31:01 (setting [2]), 81.3 nM; with HLA-A*03:01 (setting [2]), 19400 nM; in the assay with HLA-A*68:01 (setting [2]) it was 1440 nM; with HLA-A*33:01 (setting [2]) it was 83.5 nM.
For LFSTSAADIK, the Kd is 4790 nM with HLA-A*11:01 (setting [1]); no less than 70000 nM with HLA-A*31:01 (setting [1]); 19600 nM in the assay with HLA-A*03:01 (setting [1]); 57.8 nM with HLA-A*68:01 (setting [1]); no less than 70000 nM in the assay with HLA-A*33:01 (setting [1]).
LIIYYQLAGY: the Kd with HLA-A*11:01 (setting [1]) is 5120 nM; with HLA-A*31:01 (setting [1]), no less than 25700 nM; with HLA-A*03:01 (setting [1]), 137 nM; with HLA-A*68:01 (setting [1]), 8000 nM; with HLA-A*33:01 (setting [1]) it was no less than 67600 nM.
With RQFHQKLLK, the Kd was 13.3 nM with HLA-A*11:01 (setting [2]); 8.5 nM with HLA-A*31:01 (setting [2]); 12.6 nM in the assay with HLA-A*03:01 (setting [2]); no less than 39500 nM with HLA-A*68:01 (setting [2]); no less than 77700 nM with HLA-A*33:01 (setting [2]).
As to NYTRFWYINH, the Kd in the assay with HLA-A*11:01 (setting [3]) stood at 12300 nM; with HLA-A*31:01 (setting [3]), 1340 nM; in the assay with HLA-A*03:01 (setting [3]), 9020 nM; with HLA-A*68:01 (setting [3]) it was 4140 nM; with HLA-A*33:01 (setting [3]), 48.8 nM.
With SAGAGVLDK, the dissociation constant (Kd) with HLA-A*11:01 (setting [1]) was 316 nM; with HLA-A*31:01 (setting [1]), no less than 26600 nM; in the assay with HLA-A*03:01 (setting [1]), 243 nM; in the assay with HLA-A*68:01 (setting [1]), 3350 nM; in the assay with HLA-A*33:01 (setting [1]) it was no less than 77700 nM.
The like results for ILNKIVQLPK were, in that order, 289 nM, 2070 nM, 17.3 nM, 8300 nM and no less than 70000 nM.
With SVVQKPVDVK, the Kd with HLA-A*11:01 (setting [2]) was 53.7 nM; with HLA-A*31:01 (setting [2]) it was 7980 nM; with HLA-A*03:01 (setting [2]), 61.6 nM; in the assay with HLA-A*68:01 (setting [2]) it was 857 nM; with HLA-A*33:01 (setting [2]), no less than 67100 nM.
As for NIKPSKENR, the Kd in the assay with HLA-A*11:01 (setting [1]) was no less than 30400 nM; in the assay with HLA-A*31:01 (setting [1]) it was 545 nM; with HLA-A*03:01 (setting [1]) it was 7390 nM; with HLA-A*68:01 (setting [1]) it was 10.5 nM; in the assay with HLA-A*33:01 (setting [1]) it was 338 nM.
Consider VVYRAFDIY, for which the Kd is 149 nM in the assay with HLA-A*11:01 (setting [2]); 7860 nM with HLA-A*31:01 (setting [2]); 163 nM in the assay with HLA-A*03:01 (setting [2]); 3340 nM with HLA-A*68:01 (setting [2]); no less than 25100 nM with HLA-A*33:01 (setting [2]).
Regarding DSEPISILDR, the Kd is no less than 61400 nM in the assay with HLA-A*11:01 (setting [1]); no less than 52800 nM with HLA-A*31:01 (setting [1]); no less than 70100 nM with HLA-A*03:01 (setting [1]); 518 nM with HLA-A*68:01 (setting [1]); 4620 nM with HLA-A*33:01 (setting [1]).
For SMRYQSLIPR, in that order: 1.01 nM, 0.363 nM, 1.35 nM, 20.2 nM and 0.614 nM.
The like results for KSQAKKPEVR were, in that order, 10800 nM, 299 nM, no less than 22000 nM, no less than 70200 nM and no less than 37200 nM.
As for TLLPLTQYNR, the Kd was 8140 nM with HLA-A*11:01 (setting [2]); 1340 nM with HLA-A*31:01 (setting [2]); 7220 nM with HLA-A*03:01 (setting [2]); 3410 nM with HLA-A*68:01 (setting [2]); 4590 nM with HLA-A*33:01 (setting [2]).
For RIDGAHLTK, in that order: 11.9 nM, 1820 nM, 26.7 nM, no less than 25700 nM and no less than 77700 nM.

Values taken from the Immune Epitope Database (IEDB).
